The values below come from US20150301068A1 (VIB VZW, published 2015).

This data set deals with the molecule itself. The experiment in a line: Western blot of HEK lysates after detergents, 95 C and beta-mercaptoethanol; homodimer band at about 50 kDa.

B1: tetraspanin 6 (TSPAN6) (other)
chain: MASPSRRLQTKPVITCFKSVLLIYTFIFWITGVILLAVGIWGKVSLENYFSLLNEKATNVPFVLIATGTVIILLGTFGCFATCRASAWMLKLYAMFLTLVFLVELVAAIVGFVFRHEIKNSFKNNYEKALKQYNSTGDYRSHAVDKIQNTLHCCGVTDYRDWTDTNYYSEKGFPKSCCKLEDCTPQRDADKVNNEGCFIKVMTIIESEMGVVAGISFGVACFQLIGIFLAYCLSRAITNNQYEIV
notes: Endogenous TSPAN6 in HEK cell lysates, exosomes and human CSF, on Western blots; also called tetraspanin TM4-D; tetraspanin TM4SF
In the case of B1, the binding result is reported as “binds”.
